Assay results as given in patent US7393670B2, “Tyrosyl-tRNA synthetase variants” (Japan Science and Technology Agency, priority 2001, dated 2008).

Key:
[1] = Aminoacylation reaction, simplified Lloyd's method, inorganic phosphate detected with Biomol green; assay type: biochemical; set-up: key: ***: the aminoacylation reaction was detected by a microplate reader in the reaction at enzyme concentrations of 50 nM; **: 500 nM; *: 5 μM; the activity is high in the order of *** > ** > * > —; details: tyrosine 200 μM, 37° C. for 4 min
Procedure: (§1) In the first method, Lloyd's method (Nucleic Acids Research, 23:2886-2892, 1995) where inorganic phosphate produced by pyrophosphatase-drived hydrolysis of pyrophosphate which was one of the reaction products of the aminoacylation reactions was quantified was simplified, and the inorganic phosphate was detected using Biomol green (Funakoshi) to carry out the measurement of the aminoacylation reaction.
(§2) Amino acid concentrations were 200 μM and 1 mM for tyrosine and 3-iodotyrosine, respectively.
The method where the aminoacylation reaction is measured by quantifying inorganic phosphate produced by pyrophosphatase-drived hydrolysis of pyrophosphate which is one of reaction products of the aminoacylation has been described by Lloyd et al. (Nucleic Acids Research, 23:2886-2892, 1995). In one method of the invention, this method was simplified and the aminoacylation reaction was measured by the detection of inorganic phosphate using Biomol green (Funakoshi). […] To stop the reaction, 0.1 ml of Bio mol green was added. Absorbance of its supernatant was measured at 630 nm.

[2] = as above; assay type: biochemical; set-up: key: ***: the aminoacylation reaction was detected by a microplate reader in the reaction at enzyme concentrations of 50 nM; **: 500 nM; *: 5 μM; the activity is high in the order of *** > ** > * > —; details: 3-iodotyrosine 1 mM, 37° C. for 4 min
Procedure: as §1, §2
The method where the aminoacylation reaction is measured by quantifying inorganic phosphate produced by pyrophosphatase-drived hydrolysis of pyrophosphate which is one of reaction products of the aminoacylation has been described by Lloyd et al. (Nucleic Acids Research, 23:2886-2892, 1995). In one method of the invention, this method was simplified and the aminoacylation reaction was measured by the detection of inorganic phosphate using Biomol green (Funakoshi). Each enzyme obtained was incubated with 0.05 ml of the buffer B containing 1 mM ATP (Seikagaku Corporation), 30 μM purified crude tyrosyl-tRNA, and 100 μM tyrosine or 0.5 mM 3-iodotyrosine at 37° C. for one hour. To stop the reaction, 0.1 ml of Bio mol green was added. Absorbance of its supernatant was measured at 630 nm.

Row | Molecule | Aminoacylation activity, Tyrosine ([1]; Table 2) | Aminoacylation activity, 3-iodotyrosine ([2]; Table 2) | Aminoacylation activity, Tyrosine ([1]; Table 3) | Aminoacylation activity, 3-iodotyrosine ([2]; Table 3)
1 | 37L: E. coli TyrRS variant: position 37 Leucine, position 195 Glutamine (protein, UniProt P0AGJ9 2-424, looked up, variant Y37L) Tyrosine--tRNA ligase: ASSNLIKQLQERGLVAQVTDEEALAERLAQGPIALLCGFDPTADSLHLGHLVPLLCLKRFQQAGHKPVALVGGATGLIGDPSFKAAERKLNTEETVQEWVDKIRKQVAPFLDFDCGENSAIAANNYDWFGNMNVLTFLRDIGKHFSVNQMINKEAVKQRLNREDQGISFTEFSYNLLQGYDFACLNKQYGVVLQIGGSDQWGNITSGIDLTRRLHQNQVFGLTVPLITKADGTKFGKTEGGAVWLDPKKTSPYKFYQFWINTADADVYRFLKFFTFMSIEEINALEEEDKNSGKAPRAQYVLAEQVTRLVHGEEGLQAAKRITECLFSGSLSALSEADFEQLAQDGVPMVEMEKGADLMQALVDSELQPSRGQARKTIASNAITINGEKQSDPEYFFKEEDRLFGRFTLLRRGKKNYCLICWK | *** | *** |  | 
2 | IS: E. coli TyrRS double variant: position 37 Isoleucine, position 195 Serine (protein, UniProt P0AGJ9 2-424, looked up, variant Y37I Q195S) Tyrosine--tRNA ligase: ASSNLIKQLQERGLVAQVTDEEALAERLAQGPIALICGFDPTADSLHLGHLVPLLCLKRFQQAGHKPVALVGGATGLIGDPSFKAAERKLNTEETVQEWVDKIRKQVAPFLDFDCGENSAIAANNYDWFGNMNVLTFLRDIGKHFSVNQMINKEAVKQRLNREDQGISFTEFSYNLLQGYDFACLNKQYGVVLSIGGSDQWGNITSGIDLTRRLHQNQVFGLTVPLITKADGTKFGKTEGGAVWLDPKKTSPYKFYQFWINTADADVYRFLKFFTFMSIEEINALEEEDKNSGKAPRAQYVLAEQVTRLVHGEEGLQAAKRITECLFSGSLSALSEADFEQLAQDGVPMVEMEKGADLMQALVDSELQPSRGQARKTIASNAITINGEKQSDPEYFFKEEDRLFGRFTLLRRGKKNYCLICWK |  |  | — | —
3 | 195C: E. coli TyrRS variant: position 37 Tyrosine, position 195 Cysteine (protein, UniProt P0AGJ9 2-424, looked up, variant Q195C) Tyrosine--tRNA ligase: ASSNLIKQLQERGLVAQVTDEEALAERLAQGPIALYCGFDPTADSLHLGHLVPLLCLKRFQQAGHKPVALVGGATGLIGDPSFKAAERKLNTEETVQEWVDKIRKQVAPFLDFDCGENSAIAANNYDWFGNMNVLTFLRDIGKHFSVNQMINKEAVKQRLNREDQGISFTEFSYNLLQGYDFACLNKQYGVVLCIGGSDQWGNITSGIDLTRRLHQNQVFGLTVPLITKADGTKFGKTEGGAVWLDPKKTSPYKFYQFWINTADADVYRFLKFFTFMSIEEINALEEEDKNSGKAPRAQYVLAEQVTRLVHGEEGLQAAKRITECLFSGSLSALSEADFEQLAQDGVPMVEMEKGADLMQALVDSELQPSRGQARKTIASNAITINGEKQSDPEYFFKEEDRLFGRFTLLRRGKKNYCLICWK | *** | * |  | 
4 | LS: E. coli TyrRS double variant: position 37 Leucine, position 195 Serine (protein, UniProt P0AGJ9 2-424, looked up, variant Y37L Q195S) Tyrosine--tRNA ligase: ASSNLIKQLQERGLVAQVTDEEALAERLAQGPIALLCGFDPTADSLHLGHLVPLLCLKRFQQAGHKPVALVGGATGLIGDPSFKAAERKLNTEETVQEWVDKIRKQVAPFLDFDCGENSAIAANNYDWFGNMNVLTFLRDIGKHFSVNQMINKEAVKQRLNREDQGISFTEFSYNLLQGYDFACLNKQYGVVLSIGGSDQWGNITSGIDLTRRLHQNQVFGLTVPLITKADGTKFGKTEGGAVWLDPKKTSPYKFYQFWINTADADVYRFLKFFTFMSIEEINALEEEDKNSGKAPRAQYVLAEQVTRLVHGEEGLQAAKRITECLFSGSLSALSEADFEQLAQDGVPMVEMEKGADLMQALVDSELQPSRGQARKTIASNAITINGEKQSDPEYFFKEEDRLFGRFTLLRRGKKNYCLICWK |  |  | — | —
5 | 195A: E. coli TyrRS variant: position 37 Tyrosine, position 195 Alanine (protein, UniProt P0AGJ9 2-424, looked up, variant Q195A) Tyrosine--tRNA ligase: ASSNLIKQLQERGLVAQVTDEEALAERLAQGPIALYCGFDPTADSLHLGHLVPLLCLKRFQQAGHKPVALVGGATGLIGDPSFKAAERKLNTEETVQEWVDKIRKQVAPFLDFDCGENSAIAANNYDWFGNMNVLTFLRDIGKHFSVNQMINKEAVKQRLNREDQGISFTEFSYNLLQGYDFACLNKQYGVVLAIGGSDQWGNITSGIDLTRRLHQNQVFGLTVPLITKADGTKFGKTEGGAVWLDPKKTSPYKFYQFWINTADADVYRFLKFFTFMSIEEINALEEEDKNSGKAPRAQYVLAEQVTRLVHGEEGLQAAKRITECLFSGSLSALSEADFEQLAQDGVPMVEMEKGADLMQALVDSELQPSRGQARKTIASNAITINGEKQSDPEYFFKEEDRLFGRFTLLRRGKKNYCLICWK | *** | * |  | 
6 | 195N: E. coli TyrRS variant: position 37 Tyrosine, position 195 Asparagine (protein, UniProt P0AGJ9 2-424, looked up, variant Q195N) Tyrosine--tRNA ligase: ASSNLIKQLQERGLVAQVTDEEALAERLAQGPIALYCGFDPTADSLHLGHLVPLLCLKRFQQAGHKPVALVGGATGLIGDPSFKAAERKLNTEETVQEWVDKIRKQVAPFLDFDCGENSAIAANNYDWFGNMNVLTFLRDIGKHFSVNQMINKEAVKQRLNREDQGISFTEFSYNLLQGYDFACLNKQYGVVLNIGGSDQWGNITSGIDLTRRLHQNQVFGLTVPLITKADGTKFGKTEGGAVWLDPKKTSPYKFYQFWINTADADVYRFLKFFTFMSIEEINALEEEDKNSGKAPRAQYVLAEQVTRLVHGEEGLQAAKRITECLFSGSLSALSEADFEQLAQDGVPMVEMEKGADLMQALVDSELQPSRGQARKTIASNAITINGEKQSDPEYFFKEEDRLFGRFTLLRRGKKNYCLICWK | *** | * |  | 
7 | 37I: E. coli TyrRS variant: position 37 Isoleucine, position 195 Glutamine (protein, UniProt P0AGJ9 2-424, looked up, variant Y37I) Tyrosine--tRNA ligase: ASSNLIKQLQERGLVAQVTDEEALAERLAQGPIALICGFDPTADSLHLGHLVPLLCLKRFQQAGHKPVALVGGATGLIGDPSFKAAERKLNTEETVQEWVDKIRKQVAPFLDFDCGENSAIAANNYDWFGNMNVLTFLRDIGKHFSVNQMINKEAVKQRLNREDQGISFTEFSYNLLQGYDFACLNKQYGVVLQIGGSDQWGNITSGIDLTRRLHQNQVFGLTVPLITKADGTKFGKTEGGAVWLDPKKTSPYKFYQFWINTADADVYRFLKFFTFMSIEEINALEEEDKNSGKAPRAQYVLAEQVTRLVHGEEGLQAAKRITECLFSGSLSALSEADFEQLAQDGVPMVEMEKGADLMQALVDSELQPSRGQARKTIASNAITINGEKQSDPEYFFKEEDRLFGRFTLLRRGKKNYCLICWK | ** | *** |  | 
8 | 195S: E. coli TyrRS variant: position 37 Tyrosine, position 195 Serine (protein, UniProt P0AGJ9 2-424, looked up, variant Q195S) Tyrosine--tRNA ligase: ASSNLIKQLQERGLVAQVTDEEALAERLAQGPIALYCGFDPTADSLHLGHLVPLLCLKRFQQAGHKPVALVGGATGLIGDPSFKAAERKLNTEETVQEWVDKIRKQVAPFLDFDCGENSAIAANNYDWFGNMNVLTFLRDIGKHFSVNQMINKEAVKQRLNREDQGISFTEFSYNLLQGYDFACLNKQYGVVLSIGGSDQWGNITSGIDLTRRLHQNQVFGLTVPLITKADGTKFGKTEGGAVWLDPKKTSPYKFYQFWINTADADVYRFLKFFTFMSIEEINALEEEDKNSGKAPRAQYVLAEQVTRLVHGEEGLQAAKRITECLFSGSLSALSEADFEQLAQDGVPMVEMEKGADLMQALVDSELQPSRGQARKTIASNAITINGEKQSDPEYFFKEEDRLFGRFTLLRRGKKNYCLICWK | *** | * |  | 
